Columns and labels:
[1] = target: α-syn NAC (α-syn 57–102) (human) (UniProt P37840)
[2] = target: α-syn ΔC (α-synuclein A53T deletion mutant lacking most of the C-terminal part) (human)
[3] = target: α-synuclein A53T amyloid fibres (human) (UniProt P37840); assay: co-sedimentation; purified fibres (3.5 μM at monomer concentration) with 0.7 μM CCT or GroEL in 25 mM Tris pH 7.4, 5 mM MgCl2, 150 mM NaCl, 10% glycerol, 30 min, room temperature; 141,000 xg, 60 min, 4 °C; pellet and supernatant on SDS-PAGE, Coomassie, ImageJ

chaperonin CCT (chaperonin containing TCP-1), bovine testis, sequence (Q3MHL7 whole entry, looked up): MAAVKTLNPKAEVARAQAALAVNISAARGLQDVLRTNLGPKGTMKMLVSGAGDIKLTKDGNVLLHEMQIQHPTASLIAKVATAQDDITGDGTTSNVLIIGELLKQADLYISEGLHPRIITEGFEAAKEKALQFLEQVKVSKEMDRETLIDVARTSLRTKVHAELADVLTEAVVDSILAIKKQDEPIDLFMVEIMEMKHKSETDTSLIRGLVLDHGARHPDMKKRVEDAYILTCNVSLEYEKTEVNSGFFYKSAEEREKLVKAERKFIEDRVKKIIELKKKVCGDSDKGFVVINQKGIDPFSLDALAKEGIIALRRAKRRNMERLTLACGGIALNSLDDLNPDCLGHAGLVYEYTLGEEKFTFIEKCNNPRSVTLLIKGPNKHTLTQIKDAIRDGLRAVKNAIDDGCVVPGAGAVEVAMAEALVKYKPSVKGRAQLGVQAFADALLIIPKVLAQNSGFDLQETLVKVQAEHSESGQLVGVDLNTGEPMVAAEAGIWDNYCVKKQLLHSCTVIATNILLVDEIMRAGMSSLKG
chaperonin CCT (chaperonin containing TCP-1), bovine testis, sequence (Q3T0K2 whole entry, looked up): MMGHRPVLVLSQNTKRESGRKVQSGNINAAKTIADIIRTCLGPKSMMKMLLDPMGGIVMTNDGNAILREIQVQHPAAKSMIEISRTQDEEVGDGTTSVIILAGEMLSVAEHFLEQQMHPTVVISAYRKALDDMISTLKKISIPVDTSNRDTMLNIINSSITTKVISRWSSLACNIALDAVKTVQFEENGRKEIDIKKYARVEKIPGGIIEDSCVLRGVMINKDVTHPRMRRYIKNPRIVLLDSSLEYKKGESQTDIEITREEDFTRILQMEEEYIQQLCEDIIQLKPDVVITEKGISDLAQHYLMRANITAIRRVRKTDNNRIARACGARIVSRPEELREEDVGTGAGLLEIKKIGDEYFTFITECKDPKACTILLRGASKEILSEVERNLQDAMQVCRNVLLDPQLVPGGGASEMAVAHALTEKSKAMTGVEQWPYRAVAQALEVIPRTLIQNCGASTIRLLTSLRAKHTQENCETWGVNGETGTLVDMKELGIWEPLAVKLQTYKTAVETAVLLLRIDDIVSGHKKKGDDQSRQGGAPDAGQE
chaperonin CCT (chaperonin containing TCP-1), bovine testis, sequence (Q3ZBH0 whole entry, looked up): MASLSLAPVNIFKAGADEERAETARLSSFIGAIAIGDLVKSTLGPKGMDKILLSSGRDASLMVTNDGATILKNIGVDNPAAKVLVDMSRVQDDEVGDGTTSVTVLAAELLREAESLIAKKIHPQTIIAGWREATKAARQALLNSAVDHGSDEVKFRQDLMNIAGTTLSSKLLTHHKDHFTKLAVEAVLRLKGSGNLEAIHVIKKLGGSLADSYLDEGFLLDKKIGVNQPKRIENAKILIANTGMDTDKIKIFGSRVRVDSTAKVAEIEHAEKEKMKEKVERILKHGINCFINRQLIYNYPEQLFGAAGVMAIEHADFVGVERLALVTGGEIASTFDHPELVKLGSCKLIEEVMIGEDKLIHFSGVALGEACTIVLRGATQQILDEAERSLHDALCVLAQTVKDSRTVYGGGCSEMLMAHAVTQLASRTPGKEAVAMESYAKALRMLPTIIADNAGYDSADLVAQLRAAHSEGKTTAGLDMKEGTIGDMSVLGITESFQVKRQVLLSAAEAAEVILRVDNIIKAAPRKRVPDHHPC
chaperonin CCT (chaperonin containing TCP-1), bovine testis, sequence (Q32L40 whole entry, looked up): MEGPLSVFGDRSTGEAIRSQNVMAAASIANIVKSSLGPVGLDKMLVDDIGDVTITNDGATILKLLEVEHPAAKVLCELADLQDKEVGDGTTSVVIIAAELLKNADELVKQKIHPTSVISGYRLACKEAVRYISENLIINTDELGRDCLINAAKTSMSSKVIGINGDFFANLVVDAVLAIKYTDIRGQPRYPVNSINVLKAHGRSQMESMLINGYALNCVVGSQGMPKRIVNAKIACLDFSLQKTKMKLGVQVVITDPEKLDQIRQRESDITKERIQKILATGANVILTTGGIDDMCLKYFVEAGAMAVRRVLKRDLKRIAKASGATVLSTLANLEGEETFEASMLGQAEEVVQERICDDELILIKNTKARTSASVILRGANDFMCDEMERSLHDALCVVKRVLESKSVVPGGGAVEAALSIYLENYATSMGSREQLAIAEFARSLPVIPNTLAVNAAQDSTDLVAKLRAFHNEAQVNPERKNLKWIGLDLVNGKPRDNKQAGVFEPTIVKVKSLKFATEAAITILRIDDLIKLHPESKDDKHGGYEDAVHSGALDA

percentage of α-syn NAC fibres (ThT fluorescence) with ADP and CCT at a molar ratio of 1:50 CCT:deletion mutant [1] [%]	percentage of α-syn ΔC fibres (ThT fluorescence) with ADP and CCT: 33% at a molar ratio of 1:10, 58% at 1:50 [2] [%]	percent of CCT cosedimented with fibres [3] [%]	Substance
38	58	–	chaperonin CCT (chaperonin containing TCP-1), bovine testis (from UniProt Q32L40 1-556; Q3ZBH0 1-535; Q3T0K2 1-545; Q3MHL7 1-531) (complex)
–	–	< 60	chaperonin CCT (chaperonin containing TCP-1), bovine testis, Q32L40 1-556; Q3ZBH0 1-535; Q3T0K2 1-545; Q3MHL7 1-531
